We go through 41 sequences from the supplement of paper PMC7877785.

± gives the uncertainty stated by the source.

A short description of the data set: self-splicing fitness, log relative to wild type (ln ratio); higher = more splicing; Tetrahymena group I intron in knt gene, E. coli kanamycin selection, DiMSum; sequences stand for … in CUCUCU…GGAGGGAAAAGUUAUCAGGCAUGCACCUGGUAGCUAGUCUUUAAACCAAUAGAUUGCAUCGGUUUAAAAGGCAAGACCGUCAAAUUGCGGGAAAGGGGUCAACAGCCGUUCAGUACCAAGUCUCAGGGGAAACUUUGAGAUGGCCUUGCAAAGGGUAUGGUAAUAAGCUGACGGACAUGGUCCUAACCACGCAGCCAAGUCCUAAGUCAACAGAUCUUCUGUUGAUAUGGAUGCAGUUCACAGACUAAAUGUCGGUCGGGGAAGAUGUAUUCUUCUCAUAAGAUAUAGUCGGACCUCUCCUUAAUGGGAGCUAGCGGAUGAAGUGAUGCAACACUGGAGCCGCUGGGAACUAAUUUGUAUGCGAAAGUAUAUUGAUUAGUUUUGGAGUACUCGUGGUCG
A digest of the protocol:
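Library with all eight P1ex-region intron nucleotides randomised, intron inside the knt kanamycin-resistance gene on pET-22b(+), in E. coli BL21(DE3). Cells grew overnight at 37°C or 30°C on LB agar with or without 25 μg/mL kanamycin (plus 100 μg/mL carbenicillin, 50 μM IPTG, 0.2% rhamnose), in six replicate transformations. Pooled colonies were amplicon-sequenced on Illumina HiSeq 2500. DiMSum fitness is the error-weighted combination of wild-type-normalised replicate fold changes, kanamycin versus none.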

With GUGCAGCAAUAUUACGUUAG, the “self-splicing fitness (ln)” value was -2.62 ± 0.14 (30 °C) and -0.353 ± 0.11 (37 °C).
Take GUGCAGCAAUAUUACGUUGC: the “self-splicing fitness (ln)” value (30 °C) was -3.82 ± 0.31 and the “self-splicing fitness (ln)” value (37 °C) was -2.93 ± 0.31.
Consider GUGCAGCAAUAUUACGUUUC, for which the “self-splicing fitness (ln)” value was -3.02 ± 0.11 (30 °C) and -0.289 ± 0.11 (37 °C).
With GUGGAGCAAUAUUACGAAUG, the “self-splicing fitness (ln)” value was -3.75 ± 0.4 (30 °C) and -1.77 ± 0.37 (37 °C).
Consider GUGGAGCAAUAUUACGAGAG, for which the “self-splicing fitness (ln)” value runs as follows: (30 °C) -3.58 ± 0.22; (37 °C) -2.7 ± 0.38.
On the same counts, the results for GUGGAGCAAUAUUACGAGCU are -3.17 ± 0.26 and -2.01 ± 0.28.
The corresponding values for GUGGAGCAAUAUUACGAUAU are -1.83 ± 0.17 and -0.975 ± 0.15.
As for GUGGAGCAAUAUUACGAUCG, for the setting “37 °C”, the “self-splicing fitness (ln)” value was -3.31 ± 0.47.
In the case of GUGGAGCAAUAUUACGAUUA, the “self-splicing fitness (ln)” value (30 °C) is -2.1 ± 0.48 and the “self-splicing fitness (ln)” value (37 °C) is -1.68 ± 0.34.
In the case of GUGGAGCAAUAUUACGAUUG, for the setting “30 °C”, the “self-splicing fitness (ln)” value is -1.98 ± 0.39.
In the case of GUGGAGCAAUAUUACGCAGG, the “self-splicing fitness (ln)” value (37 °C) is -1.19 ± 0.28.
Same read-out and setting: the value for GUGGAGCAAUAUUACGCAUC was -2.03 ± 0.41.
On to GUGGAGCAAUAUUACGCAUU, for which the “self-splicing fitness (ln)” value (30 °C) is -2.84 ± 0.22 and the “self-splicing fitness (ln)” value (37 °C) was -1.14 ± 0.13.
As to GUGGAGCAAUAUUACGCGAG, where the note is “37 °C”, the “self-splicing fitness (ln)” value was -1.53 ± 0.38.
With GUGGAGCAAUAUUACGGAAU, the “self-splicing fitness (ln)” value runs as follows: (30 °C) -3.23 ± 0.16; (37 °C) -1.33 ± 0.17.
For GUGGAGCAAUAUUACGGAUU, the “self-splicing fitness (ln)” value (30 °C) is -3.15 ± 0.47.
GUGGAGCAAUAUUACGGGUG: the “self-splicing fitness (ln)” value was -3.8 ± 0.37 (30 °C) and -2.9 ± 0.47 (37 °C).
Turning to GUGGAGCAAUAUUACGGUAC, the “self-splicing fitness (ln)” value is -2.81 ± 0.14 (30 °C) and -1.71 ± 0.15 (37 °C).
On the same counts, the results for GUGGAGCAAUAUUACGGUAU are -2.04 ± 0.23 and -1.71 ± 0.27.
The corresponding values for GUGGAGCAAUAUUACGUAGG are -3.17 ± 0.29 and -0.82 ± 0.24.
The corresponding values for GUGGAGCAAUAUUACGUCCU are -1.24 ± 0.14 and -0.219 ± 0.14.
For GUGGAGCAAUAUUACGUGGA, the “self-splicing fitness (ln)” value runs as follows: (30 °C) -2.92 ± 0.28; (37 °C) -3.07 ± 0.36.
On the same counts, the results for GUGUAGCAAUAUUACGAACA are -1.66 ± 0.16 and -0.829 ± 0.12.
The corresponding values for GUGUAGCAAUAUUACGACUU are -0.0355 ± 0.15 and -0.00223 ± 0.19.
The corresponding values for GUGUAGCAAUAUUACGAGGG are -3.38 ± 0.44 and -2.99 ± 0.47.
Consider GUGUAGCAAUAUUACGAGUA, for which, where the note is “37 °C”, the “self-splicing fitness (ln)” value was -1.56 ± 0.19.
On to GUGUAGCAAUAUUACGAGUU, for which the “self-splicing fitness (ln)” value reads like this: (30 °C) -2.8 ± 0.15; (37 °C) -1.39 ± 0.11.
The corresponding values for GUGUAGCAAUAUUACGAUGG are -2.91 ± 0.19 and -1.81 ± 0.18.
With GUGUAGCAAUAUUACGCCAC, for the setting “37 °C”, the “self-splicing fitness (ln)” value was -1.07 ± 0.48.
Still for that read-out and setting: the figure for GUGUAGCAAUAUUACGCUAU is -1.15 ± 0.24.
With GUGUAGCAAUAUUACGCUGG, the “self-splicing fitness (ln)” value is -3.59 ± 0.38 (30 °C) and -1.54 ± 0.22 (37 °C).
Turning to GUGUAGCAAUAUUACGGAGA, the “self-splicing fitness (ln)” value (37 °C) was -2.36 ± 0.45.
For the sequence GUGUAGCAAUAUUACGGAGU, the “self-splicing fitness (ln)” value is, setting by setting: (30 °C) -2.96 ± 0.17; (37 °C) -2.61 ± 0.29.
On the same counts, the results for GUGUAGCAAUAUUACGGAUG are -3.29 ± 0.41 and -0.59 ± 0.35.
For the sequence GUGUAGCAAUAUUACGGCCU, the “self-splicing fitness (ln)” value was -0.169 ± 0.073 (30 °C) and 0.685 ± 0.098 (37 °C).
With GUGUAGCAAUAUUACGGCUC, the “self-splicing fitness (ln)” value was -0.377 ± 0.064 (30 °C) and 0.195 ± 0.077 (37 °C).
On the same counts, the results for GUGUAGCAAUAUUACGGCUU are -0.494 ± 0.078 and 0.195 ± 0.11.
Turning to GUGUAGCAAUAUUACGGGCA, the “self-splicing fitness (ln)” value runs as follows: (30 °C) -0.665 ± 0.18; (37 °C) -1.29 ± 0.19.
On the same counts, the results for GUGUAGCAAUAUUACGGGGG are -3.23 ± 0.41 and -2.07 ± 0.43.
The corresponding values for GUGUAGCAAUAUUACGGUCA are -1.36 ± 0.14 and -2.06 ± 0.12.
The corresponding values for GUGUAGCAAUAUUACGGUGA are -1.45 ± 0.11 and -0.916 ± 0.14.
